T1: Haptoglobin from human serum (human, UniProt P00738 19-406, limits assumed, N-linked and O-linked glycans containing almost no fucose)
T1 construct: Natural haptoglobin is processed into α and β chains; also called Haptoglobin (HP); Serum HP
T1 sequence (looked up): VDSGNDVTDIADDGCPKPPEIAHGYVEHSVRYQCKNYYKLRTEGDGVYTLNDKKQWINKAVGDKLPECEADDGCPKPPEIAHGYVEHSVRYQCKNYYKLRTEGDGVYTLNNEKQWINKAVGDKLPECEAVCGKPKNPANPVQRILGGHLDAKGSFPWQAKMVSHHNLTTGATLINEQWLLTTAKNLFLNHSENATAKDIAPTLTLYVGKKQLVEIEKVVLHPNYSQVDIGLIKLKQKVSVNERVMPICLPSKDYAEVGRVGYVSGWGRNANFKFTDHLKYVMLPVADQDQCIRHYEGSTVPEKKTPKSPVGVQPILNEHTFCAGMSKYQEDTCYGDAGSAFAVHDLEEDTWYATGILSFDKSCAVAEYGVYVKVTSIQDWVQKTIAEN

T2: α2-Macroglobulin
T2 construct: Bought protein coated on the plate; also called α2MG
T2 sequence (P01023 24-1474, species assumed, looked up): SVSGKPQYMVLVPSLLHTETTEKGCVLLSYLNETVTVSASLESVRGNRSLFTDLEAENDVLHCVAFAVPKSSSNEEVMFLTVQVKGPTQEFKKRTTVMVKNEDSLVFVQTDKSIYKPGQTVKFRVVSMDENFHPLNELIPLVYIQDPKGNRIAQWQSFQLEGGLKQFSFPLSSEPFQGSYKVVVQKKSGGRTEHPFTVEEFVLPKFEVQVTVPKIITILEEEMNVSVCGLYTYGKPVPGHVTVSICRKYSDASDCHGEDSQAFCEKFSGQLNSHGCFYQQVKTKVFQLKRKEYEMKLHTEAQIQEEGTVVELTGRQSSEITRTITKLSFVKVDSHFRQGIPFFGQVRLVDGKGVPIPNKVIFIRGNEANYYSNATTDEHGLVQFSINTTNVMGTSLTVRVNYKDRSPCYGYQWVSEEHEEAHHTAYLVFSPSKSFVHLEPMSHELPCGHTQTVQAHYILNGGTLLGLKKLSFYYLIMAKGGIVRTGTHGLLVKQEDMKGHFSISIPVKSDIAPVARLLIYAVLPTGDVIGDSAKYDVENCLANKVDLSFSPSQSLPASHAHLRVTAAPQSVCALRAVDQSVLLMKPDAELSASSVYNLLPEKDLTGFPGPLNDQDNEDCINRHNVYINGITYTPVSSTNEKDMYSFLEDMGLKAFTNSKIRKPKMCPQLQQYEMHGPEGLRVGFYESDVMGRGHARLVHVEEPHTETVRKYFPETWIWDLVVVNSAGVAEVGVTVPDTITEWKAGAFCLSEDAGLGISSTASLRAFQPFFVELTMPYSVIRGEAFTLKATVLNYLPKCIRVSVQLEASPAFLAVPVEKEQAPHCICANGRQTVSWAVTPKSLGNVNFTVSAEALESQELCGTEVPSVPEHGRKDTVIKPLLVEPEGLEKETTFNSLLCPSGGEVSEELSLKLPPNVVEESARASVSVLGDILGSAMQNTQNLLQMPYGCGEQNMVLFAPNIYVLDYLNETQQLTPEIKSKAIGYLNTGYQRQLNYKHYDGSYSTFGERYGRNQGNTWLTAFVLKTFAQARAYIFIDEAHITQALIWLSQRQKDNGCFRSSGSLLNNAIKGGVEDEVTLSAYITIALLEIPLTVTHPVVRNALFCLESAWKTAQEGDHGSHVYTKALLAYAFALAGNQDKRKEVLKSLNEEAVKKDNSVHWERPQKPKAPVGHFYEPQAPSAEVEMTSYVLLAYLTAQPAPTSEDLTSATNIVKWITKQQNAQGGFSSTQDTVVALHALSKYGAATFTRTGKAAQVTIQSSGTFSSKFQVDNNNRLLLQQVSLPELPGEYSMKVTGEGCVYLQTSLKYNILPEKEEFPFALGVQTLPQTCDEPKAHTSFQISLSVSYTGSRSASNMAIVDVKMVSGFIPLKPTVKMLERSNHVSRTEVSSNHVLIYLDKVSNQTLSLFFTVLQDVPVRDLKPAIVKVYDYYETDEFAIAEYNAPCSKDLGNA


Experiments:
Human serum albumin [1] = target: T3, Human serum albumin (human, UniProt P02768 25-609); test: ELISA; glycoprotein coated at 10 ng/mL, biotin-labeled lectin
T3 construct: Bought protein coated on the plate; also called HAS
Procedure: (§1) Serum glycoprotein (human serum albumin (CALBIOCHEM), Immunoglobulin G (Sigma), transferrin (Sigma), fibrinogen (AbD Serotec), Immunoglobulin A (BETYL) α2-macroglobulin (BMO), Immunoglobulin M (ROCKLAND), Complement C3 (CALBIOCHEM), haptoglobin (BIODESIGN), α1-acidic glycoprotein (Sigma), α-fetoprotein (Fitzgerald), α-fetoprotein L3 (Wako Pure Chemical Industries, Ltd) and prostate-specific antigen (Scipac) were dissolved in PBS at 1 mg/mL, and further diluted to 10 ng/mL with 0.1 M carbonate buffer (pH 9.5). Fifty μL of the diluted solution was added to a microtiter plate (Nunc 439454), and then incubated at 37° C. for 1 hour. After washed once with 0.05% Tween 20 (polyoxyethylene sorbitan monolaurate) (hereafter abbreviated as Tween)/PBS, 200 μL, of 1% bovine serum albumin (BSA)/PBS was added to the wells, and then incubated at 37° C. for 1 hour. The plate was washed twice with 0.05% Tween/PBS.
(§2) Fifty μL of the biotin labeled lectin solution prepared to 1 μg/mL with 1% BSA/0.05% Tween/PBS was added to the wells, and then left at room temperature for 1 hour. After washed twice with 0.05% Tween/PBS, 50 μL of the HRP labeled streptavidin solution (1 μg/mL) diluted with 1% BSA/0.05% Tween/PBS was added to the wells, and then left at room temperature for 30 minutes. After washed three times with 0.05% Tween/PBS, 50 μL of the HRP chromogenic substrate (product name: TMB Peroxidase substrate system, KPL) was added, and then left at room temperature for 5 minutes.
(§3) The absorbance values at 450 nm were subtracted by the absorbance value from the well on the plate in which no glycoprotein was immobilized, and the resulting values were taken as reaction values. Affinity was ranked by classifying the reaction values according to the following criteria.

[2] = target: T1, Haptoglobin from human serum; test: as above
Procedure: as §1, §2, §3

α1-Acid glycoprotein = target: T4, α1-Acid glycoprotein; test: ELISA; coated glycoprotein, biotin-labeled lectin 1 µg/mL; grade of A450 reaction value (Low 0.1 to 0.2, Moderate 0.2 to 0.5, High 0.5 or more)
T4 construct: Bought protein coated on the plate; also called AGP; α1-acidic glycoprotein
Procedure: as §1, §2, §3

Immunoglobulin M = target: T5, Immunoglobulin M; test: as above
T5 construct: Serum glycoprotein coated on the plate; also called IgM
Procedure: as §1, §2, §3

Immunoglobulin G = target: T6, Immunoglobulin G; test: as above
T6 construct: Serum glycoprotein coated on the plate; also called IgG
Procedure: as §1, §2, §3

Transferrin = target: T7, Transferrin; test: as above
T7 construct: Bought protein coated on the plate; also called TF
Procedure: as §1, §2, §3

Human serum albumin [3] = target: T3, Human serum albumin; test: as above
Procedure: as §1, §2, §3

Fibrinogen = target: T8, Fibrinogen; test: as above
T8 construct: Bought protein coated on the plate; also called FB
Procedure: as §1, §2, §3

α2-Macroglobulin = target: T2, α2-Macroglobulin; test: as above
Procedure: as §1, §2, §3

Complement C3 = target: T9, Complement C3; test: as above
T9 construct: Bought protein coated on the plate
Procedure: as §1, §2, §3

[4] = target: T1, Haptoglobin from human serum; test: as above
Procedure: as §1, §2, §3

Immunoglobulin A = target: T10, Immunoglobulin A; test: as above
T10 construct: Serum glycoprotein coated on the plate; also called IgA
Procedure: as §1, §2, §3

T3 sequence (P02768 25-609 limits assumed): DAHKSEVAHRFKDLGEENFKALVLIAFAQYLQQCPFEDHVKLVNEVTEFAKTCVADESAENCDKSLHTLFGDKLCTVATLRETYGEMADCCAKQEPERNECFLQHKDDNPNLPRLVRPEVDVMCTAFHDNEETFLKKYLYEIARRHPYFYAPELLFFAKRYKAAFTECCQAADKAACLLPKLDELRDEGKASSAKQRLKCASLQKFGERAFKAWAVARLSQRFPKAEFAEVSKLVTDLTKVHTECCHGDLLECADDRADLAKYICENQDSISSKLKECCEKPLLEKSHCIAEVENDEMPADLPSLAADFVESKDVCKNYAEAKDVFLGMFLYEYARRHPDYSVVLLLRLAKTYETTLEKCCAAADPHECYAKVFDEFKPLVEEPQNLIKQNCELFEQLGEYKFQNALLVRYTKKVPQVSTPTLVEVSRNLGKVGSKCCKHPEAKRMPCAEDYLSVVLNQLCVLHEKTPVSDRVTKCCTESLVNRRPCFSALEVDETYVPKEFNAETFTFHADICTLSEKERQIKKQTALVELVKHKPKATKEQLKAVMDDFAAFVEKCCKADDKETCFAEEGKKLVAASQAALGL
T9 sequence (P01024 23-667, chain 1 of 2): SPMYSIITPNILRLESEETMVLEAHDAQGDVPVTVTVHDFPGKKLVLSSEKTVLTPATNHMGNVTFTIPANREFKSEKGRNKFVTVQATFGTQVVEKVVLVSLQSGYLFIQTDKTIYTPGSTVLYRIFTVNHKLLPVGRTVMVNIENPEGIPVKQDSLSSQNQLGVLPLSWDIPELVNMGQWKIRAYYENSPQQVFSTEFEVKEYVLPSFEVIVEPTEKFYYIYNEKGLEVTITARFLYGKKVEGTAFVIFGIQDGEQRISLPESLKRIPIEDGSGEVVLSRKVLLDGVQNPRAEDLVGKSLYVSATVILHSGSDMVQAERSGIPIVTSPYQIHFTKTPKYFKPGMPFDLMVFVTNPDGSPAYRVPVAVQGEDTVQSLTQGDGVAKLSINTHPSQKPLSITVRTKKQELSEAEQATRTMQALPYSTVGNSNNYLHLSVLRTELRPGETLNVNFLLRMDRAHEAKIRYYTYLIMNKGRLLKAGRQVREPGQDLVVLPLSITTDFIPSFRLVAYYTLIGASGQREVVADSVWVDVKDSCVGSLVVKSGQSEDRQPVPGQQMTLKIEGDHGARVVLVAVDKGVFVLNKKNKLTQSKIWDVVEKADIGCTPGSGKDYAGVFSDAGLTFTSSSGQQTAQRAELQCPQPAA
T9 sequence (P01024 672-1663, chain 2 of 2): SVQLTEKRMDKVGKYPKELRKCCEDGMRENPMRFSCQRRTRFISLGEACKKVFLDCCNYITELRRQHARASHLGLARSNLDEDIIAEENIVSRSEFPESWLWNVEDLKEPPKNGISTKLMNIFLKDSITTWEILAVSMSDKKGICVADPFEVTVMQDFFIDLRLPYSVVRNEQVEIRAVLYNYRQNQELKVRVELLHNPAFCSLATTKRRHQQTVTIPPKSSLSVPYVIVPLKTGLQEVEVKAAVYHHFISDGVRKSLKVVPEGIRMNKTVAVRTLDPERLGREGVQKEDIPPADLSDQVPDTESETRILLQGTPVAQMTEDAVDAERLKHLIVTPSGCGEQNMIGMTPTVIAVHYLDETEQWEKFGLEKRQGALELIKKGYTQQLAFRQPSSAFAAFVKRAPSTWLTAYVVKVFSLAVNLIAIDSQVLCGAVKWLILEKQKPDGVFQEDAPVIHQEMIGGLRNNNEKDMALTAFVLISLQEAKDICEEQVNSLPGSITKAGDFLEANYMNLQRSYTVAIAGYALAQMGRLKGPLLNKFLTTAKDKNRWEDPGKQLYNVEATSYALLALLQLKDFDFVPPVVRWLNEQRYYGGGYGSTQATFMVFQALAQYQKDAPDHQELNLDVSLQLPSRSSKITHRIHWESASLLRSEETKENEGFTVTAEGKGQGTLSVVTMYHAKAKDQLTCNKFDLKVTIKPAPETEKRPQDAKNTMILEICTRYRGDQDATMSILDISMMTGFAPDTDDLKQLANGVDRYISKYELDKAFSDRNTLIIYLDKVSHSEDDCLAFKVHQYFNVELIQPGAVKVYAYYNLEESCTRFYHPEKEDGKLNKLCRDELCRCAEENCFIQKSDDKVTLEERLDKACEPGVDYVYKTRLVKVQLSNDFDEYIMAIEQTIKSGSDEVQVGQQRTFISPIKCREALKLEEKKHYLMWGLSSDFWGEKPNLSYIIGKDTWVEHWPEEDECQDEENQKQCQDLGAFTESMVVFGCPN
T7 sequence (P02787 20-698): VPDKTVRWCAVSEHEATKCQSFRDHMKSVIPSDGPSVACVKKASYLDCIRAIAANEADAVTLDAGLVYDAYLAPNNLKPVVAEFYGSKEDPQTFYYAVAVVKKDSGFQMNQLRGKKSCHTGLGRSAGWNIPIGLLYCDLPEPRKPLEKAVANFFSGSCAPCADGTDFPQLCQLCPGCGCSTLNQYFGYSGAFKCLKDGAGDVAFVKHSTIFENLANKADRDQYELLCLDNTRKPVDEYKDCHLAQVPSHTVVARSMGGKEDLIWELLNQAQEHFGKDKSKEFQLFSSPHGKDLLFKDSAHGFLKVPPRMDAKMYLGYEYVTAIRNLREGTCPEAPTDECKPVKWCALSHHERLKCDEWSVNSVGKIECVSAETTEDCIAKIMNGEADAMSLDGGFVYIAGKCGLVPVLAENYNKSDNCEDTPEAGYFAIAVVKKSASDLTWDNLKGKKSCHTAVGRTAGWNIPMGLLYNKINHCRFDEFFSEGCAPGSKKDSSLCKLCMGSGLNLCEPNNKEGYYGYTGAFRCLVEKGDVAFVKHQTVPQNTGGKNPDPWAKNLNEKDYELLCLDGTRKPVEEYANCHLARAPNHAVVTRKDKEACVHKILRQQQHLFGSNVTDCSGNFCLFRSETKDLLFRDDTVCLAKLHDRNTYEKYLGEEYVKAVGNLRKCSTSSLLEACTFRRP
T4 sequence (P02763 19-201): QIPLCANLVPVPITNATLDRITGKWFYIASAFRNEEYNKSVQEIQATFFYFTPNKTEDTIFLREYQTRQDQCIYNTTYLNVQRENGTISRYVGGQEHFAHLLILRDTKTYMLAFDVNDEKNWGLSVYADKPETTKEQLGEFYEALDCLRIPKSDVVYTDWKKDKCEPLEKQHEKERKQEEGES

binding result (Human serum albumin [1])	binding result [2]	reaction value (absorbance at 450 nm minus blank) (α1-Acid glycoprotein)	reaction value (absorbance at 450 nm minus blank) (Immunoglobulin M)	reaction value (absorbance at 450 nm minus blank) (Immunoglobulin G)	reaction value (absorbance at 450 nm minus blank) (Transferrin)	reaction value (absorbance at 450 nm minus blank) (Human serum albumin [3])	reaction value (absorbance at 450 nm minus blank) (Fibrinogen)	reaction value (absorbance at 450 nm minus blank) (α2-Macroglobulin)	reaction value (absorbance at 450 nm minus blank) (Complement C3)	reaction value (absorbance at 450 nm minus blank) [4]	reaction value (absorbance at 450 nm minus blank) (Immunoglobulin A)	Binder
no binding	no binding	–	–	–	–	–	–	–	–	–	–	Ulex europaeus lectin (other, UniProt P22972 1-243, looked up, biotin label (site not stated), Bought, biotin-labeled; also called UEA-I; UEA- 1) SDDLSFKFKNFSQNGKDLSFQGDASVIETGVLQLNKVGNNLPDETGGIARYIAPIHIWNCNTGEVASFITSFSFFMETSANPKAATDGLTFFLAPPDSPLRRAGGYFGLFEDTKDNDSSYQTVAVEFDTIGSPVNFDDPGFPHIGIDVNRVKSINAERWNKRYGLNNVANVEIIYEASSKTLTASLTYPSDQTSISVTSIVDLKEILPEWVSVGFSGGTYIGRQATHEVLNWYFTSNLINTNS
no binding	–	–	–	–	–	–	–	–	–	–	–	Lens culinaris lectin (other, biotin label (site not stated), Bought, biotin-labeled; The natural lectin is processed into alpha and beta chains; also called LCA) chain 1: TETTSFSITKFSPDQKNLIFQGDGYTTKGKLTLTKAVKSTVGRALYSTPIHIWDRDTGNVANFVTSFTFVIDAPSSYNVADEFTFFIAPVDTKPQTGGGYLGVFNSKEYDKTSQTVAVEFDTFYNAAWDPSNKERHIGIDVNSIKSVNTKSWNLQNGERANVVIAFNAATNVLTVTLTYP chain 2: VTSYTLNEVVPLKDVVPEWVRIGFSATTGAEFAAHEVHSWSFHSELGGTSSS
–	–	0.2 to 0.5 od	0.2 to 0.5 od	0.1 to 0.2 od	0.1 to 0.2 od	0.1 to 0.2 od	0.1 to 0.2 od	≥ 0.5 od	0.1 to 0.2 od	0.1 to 0.2 od	0.2 to 0.5 od	Aleuria aurantia lectin (other, UniProt P18891 2-313, looked up, biotin label (site not stated), Bought, biotin-labeled; also called AAL) PTEFLYTSKIAAISWAATGGRQQRVYFQDLNGKIREAQRGGDNPWTGGSSQNVIGEAKLFSPLAAVTWKSAQGIQIRVYCVNKDNILSEFVYDGSKWITGQLGSVGVKVGSNSKLAALQWGGSESAPPNIRVYYQKSNGSGSSIHEYVWSGKWTAGASFGSTVPGTGIGATAIGPGRLRIYYQATDNKIREHCWDSNSWYVGGFSASASAGVSIAAISWGSTPNIRVYWQKGREELYEAAYGGSWNTPGQIKDASRPTPSLPDTFIAANSSGNIDISVFFQASGVSLQQWQWISGKGWSIGAVVPTGTPAGW

From patent US20120244563A1 (J OIL MILLS, published 2012)
